Source: publication PMC4890606 (Molecular cell, 2016)
One block for each binder: values may come before it.

How the values were obtained:
[1] = target: the molecule itself
[2] = target: T1, Mit1 C-terminal domain (1156–1417) (S. pombe, UniProt Q9P793 1156-1417); assay: pull-down
T1 sequence (looked up): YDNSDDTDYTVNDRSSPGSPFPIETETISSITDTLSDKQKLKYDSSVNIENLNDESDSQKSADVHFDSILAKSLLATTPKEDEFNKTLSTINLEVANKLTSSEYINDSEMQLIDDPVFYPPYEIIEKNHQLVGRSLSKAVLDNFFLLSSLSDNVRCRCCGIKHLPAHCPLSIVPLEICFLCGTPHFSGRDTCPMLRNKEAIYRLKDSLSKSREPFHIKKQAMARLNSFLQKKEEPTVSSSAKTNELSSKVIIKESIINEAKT

B1: Clr3 (aa31–687) (enzyme, S. pombe, UniProt P56523 31-687, looked up)
chain: TNNKPMSGSENTLNNESHEMSQILKKSGLCYDPRMRFHATLSEVDDHPEDPRRVLRVFEAIKKAGYVSNVPSPSDVFLRIPAREATLEELLQVHSQEMYDRVTNTEKMSHEDLANLEKISDSLYYNNESAFCARLACGSAIETCTAVVTGQVKNAFAVVRPPGHHAEPHKPGGFCLFNNVSVTARSMLQRFPDKIKRVLIVDWDIHHGNGTQMAFYDDPNVLYVSLHRYENGRFYPGTNYGCAENCGEGPGLGRTVNIPWSCAGMGDGDYIYAFQRVVMPVAYEFDPDLVIVSCGFDAAAGDHIGQFLLTPAAYAHMTQMLMGLADGKVFISLEGGYNLDSISTSALAVAQSLLGIPPGRLHTTYACPQAVATINHVTKIQSQYWRCMRPKHFDANPKDAHVDRLHDVIRTYQAKKLFEDWKITNMPILRDSVSNVFNNQVLCSSNFFQKDNLLVIVHESPRVLGNGTSETNVLNLNDSLLVDPVSLYVEWAMQQDWGLIDINIPEVVTDGENAPVDILSEVKELCLYVWDNYVELSISKNIFFIGGGKAVHGLVNLASSRNVSDRVKCMVNFLGTEPLVGLKTASEEDLPTWYYRHSLVFVSSSNECWKKAKRAKRRYGRLMQSEHTETSDMMEQHYRAVTQYLLHLLQKARPTSQ
stoichiometry N [1]: 2

binding result [2]: binds
B2: Clr1 region between residues 357–500 (domain or fragment, S. pombe, UniProt O74808 357-500, looked up)
chain: PFLTPDNIASSILYSTASFSRSKPDRPRLNLSLELKLMQNELNKGQLKKQFKGDLRNLADWNNLSLVSSKFPSLPITNLRPDGSFLKHRRFNEEIAYNRQTLEKAIKQLDLSPDKVIQLREQNGVAVNGRVCYPTRNKHSEISA
